Results: patent publication US20140357844A1 (RINAT NEUROSCIENCE, published 2014)
Substitutions are numbered along the chain they refer to. Values belong to the binder of their own block, whether it stands above or below them.

Key:
[1] = molecular target: T1, Monomeric Trop-2 extracellular domain prepared from papain digestion of Trop-2-Fc fusion protein (human, UniProt P09758 27-274); experiment: SPR (Biacore), mouse IgG captured by anti-mouse IgG, monomeric Trop-2 ECD as analyte
T1 construct: also called huTrop-2
T1 sequence: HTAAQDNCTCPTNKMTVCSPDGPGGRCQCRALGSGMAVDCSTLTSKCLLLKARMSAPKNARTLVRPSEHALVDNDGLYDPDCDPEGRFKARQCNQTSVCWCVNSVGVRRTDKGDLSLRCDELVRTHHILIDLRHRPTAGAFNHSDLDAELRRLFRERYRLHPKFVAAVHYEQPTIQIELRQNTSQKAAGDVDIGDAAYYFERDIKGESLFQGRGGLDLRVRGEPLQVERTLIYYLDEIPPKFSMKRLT
Procedure: The affinities of anti-Trop-2 mouse antibodies generated from hybridomas were measured on a surface plasmon resonance Biacore™ 2000 or 3000 biosensor equipped with a research-grade CM5 sensor chip (Biacore™ AB, Uppsala, Sweden—now GE Healthcare). Anti-mouse IgG was first amine coupled to the CM5 sensor surface. Various anti-Trop-2 mouse IgGs were then captured by anti-mouse IgG. Monomeric Trop-2 extracellular domain prepared from papain digestion of Trop-2-Fc fusion protein was then injected as the analyte at 3 fold dilution series.

Human Trop-2-mFc protein = molecular target: T2, Human Trop-2-mFc protein (human, UniProt P09758 27-274); experiment: SPR (Biacore 2000), human Trop-2-mFc captured by anti-mouse Fc, Fab as analyte
T2 construct: also called huTrop-2; not shown: mouse Fc
T2 sequence: T1 sequence

Kd [1]: 31.8 nM
koff [1]: 0.0086 s⁻¹
kon [1]: 270000 M⁻¹ s⁻¹
B1: anti-Trop-2 mouse antibody 6G11 (antibody, mouse IgG2a, V domains shown)
VH: QVQLQQPGAELVRPGASVKLSCKASGYTFTSYWINWVKQRPGHGLEWIGNIYPSDSYSNYNQKFKDKATLTVDKSSSTAYMQVSSPTSEDSAVYYCTYGSSFDYWGQGTTVTVSS
VL: DILLTQSPAILSVSPGERVSFSCRASQTIGTSIHWYQQRTNGSPRLLIKYASESISGIPSRFSGSGSGTDFTLSINSVESEDIADYYCQQSNSWPFTFGSGTKLEIK
notes: also called m6G11

Kd (Human Trop-2-mFc protein): 27 nM
koff (Human Trop-2-mFc protein): 0.0096 s⁻¹
kon (Human Trop-2-mFc protein): 360000 M⁻¹ s⁻¹
B2: Human 6G11 WT Fab fragment (Fab, V domains shown)
VH: QVQLVQSGAEVKKPGASVKVSCKASGYTFTSYWINWVRQAPGQGLEWMGNIYPSDSYSNYNQKFKDRVTMTRDTSTSTVYMELSSLRSEDTAVYYCARGSSFDYWGQGTLVTVSS
VL: EIVLTQSPATLSLSPGERATLSCRASQTIGTSIHWYQQKPGQAPRLLIYYASESISGIPARFSGSGSGTDFTLTISSLEPEDFAVYYCQQSNSWPFTFGQGTKLEIK
notes: Fab; also called h6G11_WT; h6G11

Kd (Human Trop-2-mFc protein): 0.6 nM
koff (Human Trop-2-mFc protein): 0.00038 s⁻¹
kon (Human Trop-2-mFc protein): 640000 M⁻¹ s⁻¹
B3: Human 6G11_FKG_SF Fab fragment (Fab, V domains shown)
VH: B2 VH with Y52F, Q62K, S101G
VL: B2 VL with Q89S, N92F
notes: Fab
